Experimental data reported in patent US20220356216A1.

Key:
[1] = target: mRFP1-sspB-Nano (mRFP1 fused to the sspB-Nano protein, his-MBP removed by TEV protease); assay: fluorescence microscopy of RFP-sspB-Nano recruitment to synthetic cells with membrane-bound protein; activation by coelenterazine (bioluminescence)
[2] = target: mRFP1-sspB-Nano (mRFP1 fused to the sspB-Nano protein, his-MBP removed by TEV protease); assay: fluorescence microscopy of RFP-sspB-Nano recruitment to synthetic cells with membrane-bound protein; activation by blue laser light
[3] = target: mRFP1-sspB-Nano (mRFP1 fused to the sspB-Nano protein, his-MBP removed by TEV protease); assay: fluorescence microscopy of RFP-sspB-Nano recruitment to synthetic cells with membrane-bound protein; activation by 488 nm laser

Substance	fold increase of normalized mRFP1 intensity at the membrane against the dark conditions [1]	fold difference of mRFP1 intensity between dark and light conditions [2]	fold increase of mRFP1 signal at the membrane against the dark conditions [3]
his-Gluc-iLID (fusion of N-terminal Gaussia luciferase and C-terminal iLID with a linker peptide and an N-terminal his-tag)	2.5 fold	> 8 fold	
his-iLID (his-tagged improved light-induced dimer)			1.5 fold
